This is an account of results in US20230218738A1 (Pfizer, published 2023).

Assay in all cases: BLI (Octet), F on anti-HIS tip, 20 nM mAb
The target in assay [1] is T1, RSV F protein mutant pXCS774 (RSV A2, UniProt P03420 26-109).
T1 chain 1: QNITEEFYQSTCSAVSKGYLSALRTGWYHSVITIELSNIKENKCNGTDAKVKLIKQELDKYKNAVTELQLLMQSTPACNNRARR
T1 chain 2: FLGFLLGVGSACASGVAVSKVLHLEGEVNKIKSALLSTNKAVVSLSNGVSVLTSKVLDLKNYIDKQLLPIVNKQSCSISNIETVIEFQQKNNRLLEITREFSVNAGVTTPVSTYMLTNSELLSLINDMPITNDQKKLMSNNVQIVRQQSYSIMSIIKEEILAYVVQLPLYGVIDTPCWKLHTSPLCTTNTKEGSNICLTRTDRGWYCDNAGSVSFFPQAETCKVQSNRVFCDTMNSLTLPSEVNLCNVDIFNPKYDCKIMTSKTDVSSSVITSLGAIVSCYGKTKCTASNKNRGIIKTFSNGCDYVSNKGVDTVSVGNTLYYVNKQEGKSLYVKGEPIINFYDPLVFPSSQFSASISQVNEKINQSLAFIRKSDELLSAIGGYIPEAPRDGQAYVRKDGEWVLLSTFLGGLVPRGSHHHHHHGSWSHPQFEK

Assay [2] addresses T2, RSV F protein mutant pXCS886 (RSV A2, UniProt P03420 26-109).
T2 chain 1: T1 chain 1
T2 chain 2: T1 chain 2 with S54I, I160V

Assay [3] deals with RSV F protein mutant pXCS847 (RSV A2, UniProt P03420 26-109).
In assay [4] the target is T3, RSV F protein mutant pXCS830 (RSV A2, UniProt P03420 26-109).
T3 chain 1: T1 chain 1 with S30C, C78T
T3 chain 2: T1 chain 2 with C12I, L52C, S54I, I160V, S350D, Q351E, S353D

For assay [5], the target named is RSV F protein mutant pXCS891 (RSV A2, UniProt P03420 26-109).
Assay [6] has as its target RSV F protein mutant pXCS777 (RSV A2, UniProt P03420 26-109).
In assay [7] the target is RSV F protein mutant pXCS853 (RSV A2, UniProt P03420 26-109).
The target in assay [8] is T4, RSV F protein mutant pXCS855 (RSV A2, UniProt P03420 26-109).
T4 chain 1: T1 chain 1 with S30C, C78T
T4 chain 2: T1 chain 2 with C12I, L52C, S54I, I160V, Q351E, S353D

In assay [9] the target is RSV F protein mutant pXCS854 (RSV A2, UniProt P03420 26-109).

Numbering of substitutions follows the chain as printed.

B1: AM22 (antibody, V domains shown)
VH: QVQLVQSGAEVKKPGATVKVSCKISGHTLIKLSIHWVRQAPGKGLEWMGGYEGEVDEIFYAQKFQHRLTVIADTATDTVYMELGRLTSDDTAVYFCGTLGVTVTEAGLGIDDYWGQGTLVTVSS
VL: EIVLTQSPGTLSLSPGERATLSCRASQIVSRNHLAWYQQKPGQAPRLLIFGASSRATGIPVRFSGSGSGTDFTLTINGLAPEDFAVYYCLSSDSSIFTFGPGTKVDFK
Turning to B1, the “Response (nm shift)” value in [1] amounted to 0.34 nm; in assay [2], 0.443 nm; in assay [3] it was 0.484 nm; in assay [4], 0.465 nm; in [5] it was 0.461 nm; in [6] it was 0.121 nm. Further, the “Response (nm shift)” value came out at 0.484 nm in [7], 0.523 nm in assay [8] and 0.453 nm in assay [9].

B2: MPE8 (antibody, V domains shown)
VH: EVQLVESGGGLVKPGGSLRLSCAASGFTFSSYSMNWVRQAPGKGLEWVSSISASSSYSDYADSAKGRFTISRDNAKTSLFLQMNSLRAEDTAIYFCARARATGYSSITPYFDIWGQGTLVTVSS
VL: QSVVTQTPSVSGAPGQRVTISCTGSSSNIGAGYDVHWYQQLPGTAPKLLIYDNNNRPSGVPDRFSASKSGTSASLAITGLQAEDEADYYCQSYDRNLSGVFGTGTKVTVL
notes: also called MPEG
As for B2, the “Response (nm shift)” value was 0.795 nm in [1]; 0.863 nm in assay [2]; 0.871 nm in [3]; 0.923 nm in assay [4]; 0.92 nm in assay [5]; 0.27 nm in assay [6]. Moreover, the “Response (nm shift)” value was 0.905 nm in [7], 0.982 nm in [8] and 0.886 nm in assay [9].
